Earlier results in PMC4388261.

Molecular target: Glu35 (UniProt position 53, CAAKFESNFNT)
Settings: not stated (wild-type HEWL; the literature range pools several studies)

In the case of “Hen egg-white lysozyme (HEWL, lysozyme C) (Gallus gallus)”, the pKa is listed as 6.0–6.8.
